Variants at the floor of the assay were thinned out. Bounds are passed on as bounds.

This is an account of results in the RNAGym collection of RNA variant scans (doi:10.1073/pnas.2313332121).

B1: TPR 5TU (parent)
chain: GGAUCUUCUCGAUCUAACAAAAAAGACAAAUCUGCCACAAAGCUUGAGAGCAUCUUCGGAUGCAGAGGCGGCAGCCUUCGGUGGCGCGAUAGCGCCAACGUUCUCAACUAUGACACGCAAAACGCGUGCUCCGUUGAAUGGAGUUUAUCAUG

In this data set the parent is B1. Briefly: polymerase ribozyme fitness, log enrichment relative to wild type (log ratio); higher = more active; in vitro selection for triplet polymerase activity. In a few lines:
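A single round of triplicate in vitro selection, including frozen incubation at −7 °C, was applied to PCR-built, transcribed mutant libraries of each subunit of a heterodimeric triplet polymerase ribozyme. Illumina sequencing of input and output libraries retained genotypes with ≥10 input reads and ≥1 read per output. Fitness is the base-2 logarithm of genotype enrichment divided by wild-type enrichment, from inverse-variance-weighted replicate averages.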
Consider GGAUCUUCUCGAUCGAACAAAAAAGACAAAUCUGCCACAAAGCUUGCGAGCAUCUUCGGAUGCAGAGGCGGCAGCCUUCGGUCGCGCGAUAGCGCCAACGUUCUCAACUAUGACACGCAAAACGCGUGCUCCGUUGAAUGGAGUUUAUCAUG, for which the “polymerase ribozyme fitness (log ratio)” value is -1.85.
For the variant GGAUCUUCUCGAUCUAACAAAAAAGACAAAUCUGCCACAAAGCUUGAGAGCAUCAUCGGAUGCAGAGGCGCCAGCCUUCGGUGGCGCGAUAGCGCCAACGUUCUCUACUAUGACACGCAAAACGAGUGCUCCGUUGAAUGGAGUUUAUCAUG, the “polymerase ribozyme fitness (log ratio)” value was at most -4.2.
In the case of GGAUCUUCUCGAUCUAACAAAAAAGACAAAUCUGCCACAAAGCUUGAGAGCAUCUUCGGAUGCAGAGGCGGCAGCCUUCGGUGGAGCGAUACCGCCAACGUUCUCAACUAUGACACGCAAAACGCGUGCUCCGUUGAAUGAAUUUUAUCAUG it was at most -4.2; in that of GGAUCUUCUCGAUCUAACACAAAAGACAAAUCUGCCACAAAGCUUGAGAGCAUCUUCGGAGGCAGAGGCGGCAGCCUUCGGUGGCGCGAUAGCGCCAACGUUCUCAACUAUCACACGCAAAACGCGUGCUCCGUUGAAUGGAGUUUAUCAUG, at most -4.2; in that of GGAUCUUCUCGAUCUAACAACAAAAACAAAUCUGCCACAAAGCUUGAGAGCAUCUUCGGAUGGAGAGGCGGCAGCCUUCGGUGGCGCGAUAGCGCCAACGUUCUCAACUAUGACACGCAAAACGCGUGCUCCGUUGAAUGGAGUUUAUCAUG, -3.29.
For GGAUCUUCUCGAUCUAACAAUAACGACAAAUCUGCCACAAAGCUUGAGAGCAUCUUCGGAUGCAGAGGCGGCAGCCUUUCGUGGUGCGAUAGUGCCAACGUUCUCAACUAUGACACGCAAAACGCGUGCUCCGUUGAAUGGAGUUUAUCAUG, the “polymerase ribozyme fitness (log ratio)” value was at most -4.2.
For GGAUCUUCUCGAUCUAACAAAAAAGACAAAUCUGCCACAAAGCUUAAGAGCAUCUUCGGAUGCAGAGGCGGCAGCCUUCGGUGGCGCGAUAGCGCCAAAGUUCUCAACUAUGAAACGCAAAACGCGUGAUCCGUUGAAUGAAGUUUAUCAUG, the “polymerase ribozyme fitness (log ratio)” value was at most -4.2.
Under GGAUCUUCUCGAUCGAACAUAAAAGACAAAUCUGCCACAAAGCUUGAGAGCAUUUUCGGAUGCAGAGGCGGCAGCCUUCGGUGGGGCGAUAGCUCCAACGUUCCCAACUAUGACACGCAAAACGCGUGCUCCGUUGAAUGGAGUUUAUCAUG stands -2.12; under GGAUCUUCUCGAUCUAACAAAAAAGACAAAUCUGCCACAAAGCUUGAGAGCAUCUUCGGAUGCAGAGGCGGCAGCCUUAGGUGGCGCGAGAGCGGCAACGUUCUCAACUAUGACAAGCCAAACGCGUGCUCCGUUGAAUGUAGUUUAUCAUG, at most -4.2.
Under GGAUCUUCUCGAUCUAACAAAAAAGACAAAUCUGCCACAAAGCUUGAGAGCAUCAUCGGAUGCAGAGGCGGCAGCCUUCGGUGGCGCGAUAGCGCCAACGUUCUCAACUAUGACACGCAAAACGCGUGCUCCGUUGAAUGGUGUUUAUCAUG stands -0.464; under GGAUCUUCUCGAUCUACCAAAAAAGACAAAUCUGCCACAAAGCGUGAGAGCAUCUUCGGAUGCAGAGGCGGCAGCCUUCGGUGGCGCAAUAGCGGCAACGUUUUCAACUAUGACACGCAAAACGCGUGCUCCGUUGAAUGCAGUUUAUCAUG, at most -4.2; under GGAUCUUCUCGAUCUAACAAAAAAGACAAAUCUGCCACAAAGCUUGAGAGCAUCUUCGGAUGCAGAGGCGGCAGCCUUCGGUGGCGCGAUAGCGCAAACGUUCUCAACUAUGACACGCAAAACGCGUGCUCCGUUGAAUGGACUUUAUCAUG, -2.38.
With GGAUCUUCUCGAUCUAACAAAAAAGACAAAUCUGCCACAAAGCUUGAGAGCAUCUUCGGAUGCAGAGGCGGCAGCCUUCGGUGGUGCGAUAGCGCCAACGUUCUCAACUAUGACUCGCAAAACGCGUGCUCCGUUGAAUGGAGUUUAUCAUG, the “polymerase ribozyme fitness (log ratio)” value is -2.38.
In the case of GGAUCUUCUCGAUCUAACAAAAAAGACAAAUCUGCCACAAAGCUUGAGAGCAUCUUCGGAUGUAGAGGCGGCAGCCUUCGGUGGCGCGAUAGCGCCAACGUUCUCAACUAUGACACGCUAAACGCGUGCUCCGUUGAAUGGAGCUUAUCAUG it was -0.319.
Consider GGAUCUUCUCGAUCUAACAAAAAAGACAAAUCUGCCACAAAGCUUGAGAGUAUCUUCGGAUGCAGAGGCGGCAGCCUUCGCUGGCGUGAUAGCGCCAACGUUCUCAACUAUGACAAGCAAAACACGUGCUCCGAUGAAUGGAGUUUAACAUG, for which the “polymerase ribozyme fitness (log ratio)” value is at most -4.2.
In the case of GGAUCUUCUCGAGCUAACAAAAAAGACAAAUCUGCCACAACGCUUGAGAGCAUCGUCGGAUGCAGAGGCGGCAGCCUUCGGUGGCGCGAUAGCCCCAACGUUCUCAACUAUGACAAGCAAAACGCGUGCUCCGUUGAAUGGAUUUUAUCAGG it was at most -4.2; in that of GGAUCUUCUCGAUCUAACAAAAAAGACAAAUCUGCCACAAAGCUUGAGAGCAUCUUCGGAUGCAAAGGCGGCAGCCUUCGGUGGCGCGAUAGCGCCGAGGUUCUCAACUAUGACACGCAAAACGCGUGCUCCGUUGAAUGGAGUUUAUCAUG, -3.75; in that of GGAUCUUCUCGAUCUAUCAAAAAAGACAAAUCUGCCACGAAGCUUGAGACCCUCUUCGGAUGCAGAGGCGGCAGCCUUCGGUGGCGCGAUAGCGCUAACGUUCUCAACUAUGACACGUAAAACGCGUGCUCCGUUGAAUGGAGUUUAUCAUG, at most -4.2.
In the case of GGAUCUUCUCGAUCUAACAAAAAAGACUAAUCUGCCACAAAGCUUGAGAGCAUCUUCGGAUGCAGAGGCGGUAGCCUUCGGUGGCGCGAUAGCGCCAACGUUCUCAACUAUGACACGCAAAACGCGUGCUCCGUUGAAUGGAGUUUAUCAUG it was at most -4.2.
